Measurements: patent publication US20260015399A1 (Boehringer Ingelheim, published 2026)
*1 amine or outer side, *2 acyl side, *3 side chain or, on linkers, in order; H or OH if unused. Side-chain parts run from the residue outwards. The star is where a group is joined. C18 diacid = O=C(O)CCCCCCCCCCCCCCCCC(=O)*; γGlu = O=C(O)[C@H](CCC(=O)[*:2])N[*:1]; Isovaleryl = CC(C)CC(=O)*; Ahx = NCCCCCC(=O)O

Molecular target: T1, human NPY2 receptor (human, UniProt P49146 1-381)
T1 construct: whole, on cells; also called hNPY2-R; hNPY2R
T1 sequence (looked up): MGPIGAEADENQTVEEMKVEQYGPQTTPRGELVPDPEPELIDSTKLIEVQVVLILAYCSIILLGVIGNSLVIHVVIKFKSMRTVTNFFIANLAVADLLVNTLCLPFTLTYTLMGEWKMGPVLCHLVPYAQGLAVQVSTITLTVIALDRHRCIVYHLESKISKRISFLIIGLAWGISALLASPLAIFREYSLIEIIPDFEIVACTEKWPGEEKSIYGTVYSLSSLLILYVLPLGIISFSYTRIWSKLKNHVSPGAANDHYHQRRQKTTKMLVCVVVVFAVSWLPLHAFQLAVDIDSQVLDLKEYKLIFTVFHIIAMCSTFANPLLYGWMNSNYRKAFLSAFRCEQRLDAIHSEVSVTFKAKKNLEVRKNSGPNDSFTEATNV
Test: RLB: displacement of 125I-PYY(1-36) from hNPY2R membranes

B1: Compound 133 (peptide)
peptide: Isovaleryl-APAK([Ahx-γGlu-C18 diacid])PEEDAEPEELQRYYVSLRHYYNWLTRQRY-NH2
SMILES: CC(C)CC(=O)N[C@@H](C)C(=O)N1CCC[C@H]1C(=O)N[C@@H](C)C(=O)N[C@@H](CCCCNC(=O)CCCCCNC(=O)CC[C@H](NC(=O)CCCCCCCCCCCCCCCCC(=O)O)C(=O)O)C(=O)N1CCC[C@H]1C(=O)N[C@@H](CCC(=O)O)C(=O)N[C@@H](CCC(=O)O)C(=O)N[C@@H](CC(=O)O)C(=O)N[C@@H](C)C(=O)N[C@@H](CCC(=O)O)C(=O)N1CCC[C@H]1C(=O)N[C@@H](CCC(=O)O)C(=O)N[C@@H](CCC(=O)O)C(=O)N[C@@H](CC(C)C)C(=O)N[C@@H](CCC(N)=O)C(=O)N[C@@H](CCCNC(=N)N)C(=O)N[C@@H](Cc1ccc(O)cc1)C(=O)N[C@@H](Cc1ccc(O)cc1)C(=O)N[C@H](C(=O)N[C@@H](CO)C(=O)N[C@@H](CC(C)C)C(=O)N[C@@H](CCCNC(=N)N)C(=O)N[C@@H](Cc1c[nH]cn1)C(=O)N[C@@H](Cc1ccc(O)cc1)C(=O)N[C@@H](Cc1ccc(O)cc1)C(=O)N[C@@H](CC(N)=O)C(=O)N[C@@H](Cc1c[nH]c2ccccc12)C(=O)N[C@@H](CC(C)C)C(=O)N[C@H](C(=O)N[C@@H](CCCNC(=N)N)C(=O)N[C@@H](CCC(N)=O)C(=O)N[C@@H](CCCNC(=N)N)C(=O)N[C@@H](Cc1ccc(O)cc1)C(N)=O)[C@@H](C)O)C(C)C
Question: For B1, which Ki is on record?
Answer: The Ki was 4.68 nM.

B2: Compound 134 (peptide)
peptide: Isovaleryl-APEK([Ahx-γGlu-C18 diacid])PEEDATPEEQQRYYVSLRHYYNWLTRQRY-NH2
SMILES: CC(C)CC(=O)N[C@@H](C)C(=O)N1CCC[C@H]1C(=O)N[C@@H](CCC(=O)O)C(=O)N[C@@H](CCCCNC(=O)CCCCCNC(=O)CC[C@H](NC(=O)CCCCCCCCCCCCCCCCC(=O)O)C(=O)O)C(=O)N1CCC[C@H]1C(=O)N[C@@H](CCC(=O)O)C(=O)N[C@@H](CCC(=O)O)C(=O)N[C@@H](CC(=O)O)C(=O)N[C@@H](C)C(=O)N[C@H](C(=O)N1CCC[C@H]1C(=O)N[C@@H](CCC(=O)O)C(=O)N[C@@H](CCC(=O)O)C(=O)N[C@@H](CCC(N)=O)C(=O)N[C@@H](CCC(N)=O)C(=O)N[C@@H](CCCNC(=N)N)C(=O)N[C@@H](Cc1ccc(O)cc1)C(=O)N[C@@H](Cc1ccc(O)cc1)C(=O)N[C@H](C(=O)N[C@@H](CO)C(=O)N[C@@H](CC(C)C)C(=O)N[C@@H](CCCNC(=N)N)C(=O)N[C@@H](Cc1c[nH]cn1)C(=O)N[C@@H](Cc1ccc(O)cc1)C(=O)N[C@@H](Cc1ccc(O)cc1)C(=O)N[C@@H](CC(N)=O)C(=O)N[C@@H](Cc1c[nH]c2ccccc12)C(=O)N[C@@H](CC(C)C)C(=O)N[C@H](C(=O)N[C@@H](CCCNC(=N)N)C(=O)N[C@@H](CCC(N)=O)C(=O)N[C@@H](CCCNC(=N)N)C(=O)N[C@@H](Cc1ccc(O)cc1)C(N)=O)[C@@H](C)O)C(C)C)[C@@H](C)O
Question: B2 was tested. Which Ki did it give?
Answer: Its Ki is 2.8 nM.

B3: Compound 135 (peptide)
peptide: Isovaleryl-APEK([Ahx-γGlu-C18 diacid])PEAAAEPEEIQRYYVALRHYYNWLTRQRY-NH2
SMILES: CC[C@H](C)[C@H](NC(=O)[C@H](CCC(=O)O)NC(=O)[C@H](CCC(=O)O)NC(=O)[C@@H]1CCCN1C(=O)[C@H](CCC(=O)O)NC(=O)[C@H](C)NC(=O)[C@H](C)NC(=O)[C@H](C)NC(=O)[C@H](CCC(=O)O)NC(=O)[C@@H]1CCCN1C(=O)[C@H](CCCCNC(=O)CCCCCNC(=O)CC[C@H](NC(=O)CCCCCCCCCCCCCCCCC(=O)O)C(=O)O)NC(=O)[C@H](CCC(=O)O)NC(=O)[C@@H]1CCCN1C(=O)[C@H](C)NC(=O)CC(C)C)C(=O)N[C@@H](CCC(N)=O)C(=O)N[C@@H](CCCNC(=N)N)C(=O)N[C@@H](Cc1ccc(O)cc1)C(=O)N[C@@H](Cc1ccc(O)cc1)C(=O)N[C@H](C(=O)N[C@@H](C)C(=O)N[C@@H](CC(C)C)C(=O)N[C@@H](CCCNC(=N)N)C(=O)N[C@@H](Cc1c[nH]cn1)C(=O)N[C@@H](Cc1ccc(O)cc1)C(=O)N[C@@H](Cc1ccc(O)cc1)C(=O)N[C@@H](CC(N)=O)C(=O)N[C@@H](Cc1c[nH]c2ccccc12)C(=O)N[C@@H](CC(C)C)C(=O)N[C@H](C(=O)N[C@@H](CCCNC(=N)N)C(=O)N[C@@H](CCC(N)=O)C(=O)N[C@@H](CCCNC(=N)N)C(=O)N[C@@H](Cc1ccc(O)cc1)C(N)=O)[C@@H](C)O)C(C)C
Question: Which Ki does the source give for B3 here?
Answer: The Ki was 3.83 nM.

B4: Compound 137 (peptide)
peptide: Isovaleryl-APEK([Ahx-γGlu-C18 diacid])PEEDATPEELQRYYVSLRHYYNWLLRQRY-NH2
SMILES: CC(C)CC(=O)N[C@@H](C)C(=O)N1CCC[C@H]1C(=O)N[C@@H](CCC(=O)O)C(=O)N[C@@H](CCCCNC(=O)CCCCCNC(=O)CC[C@H](NC(=O)CCCCCCCCCCCCCCCCC(=O)O)C(=O)O)C(=O)N1CCC[C@H]1C(=O)N[C@@H](CCC(=O)O)C(=O)N[C@@H](CCC(=O)O)C(=O)N[C@@H](CC(=O)O)C(=O)N[C@@H](C)C(=O)N[C@H](C(=O)N1CCC[C@H]1C(=O)N[C@@H](CCC(=O)O)C(=O)N[C@@H](CCC(=O)O)C(=O)N[C@@H](CC(C)C)C(=O)N[C@@H](CCC(N)=O)C(=O)N[C@@H](CCCNC(=N)N)C(=O)N[C@@H](Cc1ccc(O)cc1)C(=O)N[C@@H](Cc1ccc(O)cc1)C(=O)N[C@H](C(=O)N[C@@H](CO)C(=O)N[C@@H](CC(C)C)C(=O)N[C@@H](CCCNC(=N)N)C(=O)N[C@@H](Cc1c[nH]cn1)C(=O)N[C@@H](Cc1ccc(O)cc1)C(=O)N[C@@H](Cc1ccc(O)cc1)C(=O)N[C@@H](CC(N)=O)C(=O)N[C@@H](Cc1c[nH]c2ccccc12)C(=O)N[C@@H](CC(C)C)C(=O)N[C@@H](CC(C)C)C(=O)N[C@@H](CCCNC(=N)N)C(=O)N[C@@H](CCC(N)=O)C(=O)N[C@@H](CCCNC(=N)N)C(=O)N[C@@H](Cc1ccc(O)cc1)C(N)=O)C(C)C)[C@@H](C)O
Question: Which Ki does the source give for B4 here?
Answer: Its Ki is 49.6 nM.

B5: Compound 138 (peptide)
peptide: Isovaleryl-APEK([Ahx-γGlu-C18 diacid])PEEDAEPEELQEYYVSLRHYYNWLTRQRY-NH2
SMILES: CC(C)CC(=O)N[C@@H](C)C(=O)N1CCC[C@H]1C(=O)N[C@@H](CCC(=O)O)C(=O)N[C@@H](CCCCNC(=O)CCCCCNC(=O)CC[C@H](NC(=O)CCCCCCCCCCCCCCCCC(=O)O)C(=O)O)C(=O)N1CCC[C@H]1C(=O)N[C@@H](CCC(=O)O)C(=O)N[C@@H](CCC(=O)O)C(=O)N[C@@H](CC(=O)O)C(=O)N[C@@H](C)C(=O)N[C@@H](CCC(=O)O)C(=O)N1CCC[C@H]1C(=O)N[C@@H](CCC(=O)O)C(=O)N[C@@H](CCC(=O)O)C(=O)N[C@@H](CC(C)C)C(=O)N[C@@H](CCC(N)=O)C(=O)N[C@@H](CCC(=O)O)C(=O)N[C@@H](Cc1ccc(O)cc1)C(=O)N[C@@H](Cc1ccc(O)cc1)C(=O)N[C@H](C(=O)N[C@@H](CO)C(=O)N[C@@H](CC(C)C)C(=O)N[C@@H](CCCNC(=N)N)C(=O)N[C@@H](Cc1c[nH]cn1)C(=O)N[C@@H](Cc1ccc(O)cc1)C(=O)N[C@@H](Cc1ccc(O)cc1)C(=O)N[C@@H](CC(N)=O)C(=O)N[C@@H](Cc1c[nH]c2ccccc12)C(=O)N[C@@H](CC(C)C)C(=O)N[C@H](C(=O)N[C@@H](CCCNC(=N)N)C(=O)N[C@@H](CCC(N)=O)C(=O)N[C@@H](CCCNC(=N)N)C(=O)N[C@@H](Cc1ccc(O)cc1)C(N)=O)[C@@H](C)O)C(C)C
Question: Which Ki does the source give for B5 here?
Answer: The Ki was 12.5 nM.

B6: Compound 139 (peptide)
peptide: Isovaleryl-APEK([Ahx-γGlu-C18 diacid])PEEEASPAELQRYYVSLRHYYNWLTRQRY-NH2
SMILES: CC(C)CC(=O)N[C@@H](C)C(=O)N1CCC[C@H]1C(=O)N[C@@H](CCC(=O)O)C(=O)N[C@@H](CCCCNC(=O)CCCCCNC(=O)CC[C@H](NC(=O)CCCCCCCCCCCCCCCCC(=O)O)C(=O)O)C(=O)N1CCC[C@H]1C(=O)N[C@@H](CCC(=O)O)C(=O)N[C@@H](CCC(=O)O)C(=O)N[C@@H](CCC(=O)O)C(=O)N[C@@H](C)C(=O)N[C@@H](CO)C(=O)N1CCC[C@H]1C(=O)N[C@@H](C)C(=O)N[C@@H](CCC(=O)O)C(=O)N[C@@H](CC(C)C)C(=O)N[C@@H](CCC(N)=O)C(=O)N[C@@H](CCCNC(=N)N)C(=O)N[C@@H](Cc1ccc(O)cc1)C(=O)N[C@@H](Cc1ccc(O)cc1)C(=O)N[C@H](C(=O)N[C@@H](CO)C(=O)N[C@@H](CC(C)C)C(=O)N[C@@H](CCCNC(=N)N)C(=O)N[C@@H](Cc1c[nH]cn1)C(=O)N[C@@H](Cc1ccc(O)cc1)C(=O)N[C@@H](Cc1ccc(O)cc1)C(=O)N[C@@H](CC(N)=O)C(=O)N[C@@H](Cc1c[nH]c2ccccc12)C(=O)N[C@@H](CC(C)C)C(=O)N[C@H](C(=O)N[C@@H](CCCNC(=N)N)C(=O)N[C@@H](CCC(N)=O)C(=O)N[C@@H](CCCNC(=N)N)C(=O)N[C@@H](Cc1ccc(O)cc1)C(N)=O)[C@@H](C)O)C(C)C
Question: For B6, which Ki is on record?
Answer: The Ki was 3.6 nM.
